{
  "source": "patent US20190185565A1",
  "about": "(DEUTSCHES ZENTRUM FUR NEURODEGENERATIVE ERKRANKUNG EV, published 2019)",
  "data": [
    {"target": "T1, human wild-type TREM2 (membrane bound, isoform 1) stably overexpressed on HEK293 Flp-In cells (human)", "T1 construct": "also called wt TREM2; human full-length TREM2", "T1 chain": "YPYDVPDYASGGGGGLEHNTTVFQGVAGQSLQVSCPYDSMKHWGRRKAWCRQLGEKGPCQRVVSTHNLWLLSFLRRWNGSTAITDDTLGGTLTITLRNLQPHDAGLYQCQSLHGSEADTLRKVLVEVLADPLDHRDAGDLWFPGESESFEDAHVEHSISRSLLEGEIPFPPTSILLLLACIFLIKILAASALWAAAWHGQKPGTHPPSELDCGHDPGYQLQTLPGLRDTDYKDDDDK", "experiment": "immunofluorescence on live HEK293 Flp-In cells expressing human full-length TREM2 against empty-vector cells; hybridoma supernatant diluted 1:2", "method": "TREM2-reactive supernatants were subsequently screened for their ability to detect TREM2 on the cell surface of HEK293 Flp-In cells stably overexpressing human wild-type TREM2 (Kleinberger et al. 2014). HEK293 Flp-In cells either expressing human full-length TREM2 or empty vector (=control) were cultured in 96-well tissue culture plates, washed twice with PBS, blocked with 2% bovine serum albumin (BSA) in PBS and incubated with the respective TREM2-reactive supernatants (diluted 1:2 in blocking buffer) for 60 minutes on ice. Cells were subsequently washed three times with PBS, fixed with 4% paraformaldehyde for 20 min on room temperature and washed three times with PBS. Binding of TREM2-reactive supernatants was visualized using isotype-specific mouse-anti rat secondary antibodies followed by incubation with a goat anti-mouse tertiary antibody coupled to Alexa-488 (Life Technologies). 4′, 6-diamidino-2-phenylindol (Dapi, Life Technologies) was used as a nuclear counterstain. Images were acquired automatically using a Cytation multi-detection reader (Biotek).", "values": [
      {"binder": "antibody clone 8A11 (antibody, V domains shown, Rat monoclonal IgG from a hybridoma) VH: EVKLLESGGGLVQPGGSMRLSCAASGFTFTDFYMNWIRQPAGKAPEWLGLIRNKTKGYTTEYNTSVKGRFTISRDNTQNMLYLQMNSLRPEDTATYYCARIGVNNGGSLDYWGQGVMVTVSS VL: DILIIQSPASLTVSAGARVTMSCKSSQSLLYSENNQDYLAWYQQKPGQFPKLLIYGASNRHTGVPDRFTGSGSGTDFTLTISSVQAEDLADYYCEQTYSYPYTFGAGTKLELK", "binding result": "binds"},
      {"binder": "antibody clone 10C3 (antibody, V domains shown, Rat monoclonal IgG from a hybridoma) VH: EVKLLESGGGLVQPGGSMRLSCAASGFTFTDFYMNWIRQPAGETPEWLGLIRNKTKGYTTEYNPSVKGRFTISRDNTQNMLYLQMNSLRPEDTATYYCARIGTNNGGSLDYWGQGVMVTVSS VL: DILIIQSPASLTVSAGARVTMSCKSSQSLLYSENNQDYLAWYQQKPGQFPKLLIYGASNRHTGVPDRFTGSGSGTDFTLTISSVQAEDLADYYCEQTYSYPYTFGAGTKLELK", "binding result": "binds"},
      {"binder": "antibody clone 7A12 (antibody, V domains shown, Rat monoclonal IgG from a hybridoma) VH: EVKLLESGGGLVQPGGSMRLSCAASGFTFTDFYMNWIRQPAGKAPEWLGLIRNKANGYTTQYNPSVKGRFTISRDNTQNMLYLQMNTLRGEDTATYYCARIGINNGGSLDYWGQGVMVTVSS VL: DILINQSPASLTVSAGEKVTMSCKSSQSLLYSEKNQDYLAWYQQKPGQSPKLLMYGASYRHTGVPDRFTGSGSGTDFTLTISSVQAEDLADYYCEQTYSYPYTFGAGTKLELK", "binding result": "binds"},
      {"binder": "antibody clone 14D8 (antibody, V domains shown, Rat monoclonal IgG from a hybridoma) VH: EVKLLESGGGLVQPGGSMRLSCAASGFTFTDFYMNWIRQPAGKAPEWLGLIRNKANGYTTVYNPSVKGRFTISRDNTQNMLYLQMNTLRGEDTATYYCARIGINNGGSLDYWGQGVMVTVSS VL: DILINQSPASLTVSTGEKVTMSCRSSQSLLYSEKNQDYLAWYQQKPGQFPKLLIYGASYRHTGVPDRFTGSGSGTDFTLTISSVQAEDLADYYCEQTYSYPYTFGAGTKLELK", "binding result": "binds"},
      {"binder": "antibody clone 15C5 (antibody, V domains shown, Rat monoclonal IgG from a hybridoma) VH: EVKLLESGGGLVQPGGSMRLSCAASGFTFTDFYMNWIRQPAGKAPEWLGLIRNKAYGYTTEYNPSVKGRFTISRDNTQDMLYLQMNTLRAEDTATYYCARIGINYGGSLDYWGQGVMVTVSS VL: DILINQSPASLTVSAGEKVTVSCKSSQSLLYSESNQDYLAWYQQKPGQFPKLLIYGASYRHTGVPDRFTGSGSGTDFTLTISSVQAEDLAHYYCEQTYSYPYTFGAGTKLELK", "binding result": "binds"},
      {"binder": "antibody clone 18F9 (antibody, V domains shown, Rat monoclonal IgG from a hybridoma) VH: EVKLLESGGGLVQPGGSMRLSCVVSGFTFTDFYMNWIRQAAGKAPEWLGLIRNKVNGYRTEYNPSVKGRFTISRDNIQNMLYLQMNTLRAEDTATYYCARIGINNGGSLDYWGQGVMVTVSS VL: DILINQSPASLTVSAGEKVTMSCKSSQSLLYSENNQDYLAWYQQKPGQFPKLLIYGASNRHTGVPDRFTGSGSGTDFTLTISSVQAEDLADYYCEQTYSYPYTFGAGTKLELK", "binding result": "binds"},
      {"binder": "antibody clone 21A3 (antibody, V domains shown, Rat monoclonal IgG from a hybridoma) VH: EVKLLESGGGLVQPGGSMRLSCAASGFTFTDFYMNWIRQPAGKAPEWLGLIRNKANGYTTQYNPSVKGRFTISRDNTQNMLYLQMNTLRGEDTATYYCARIGINNGGSLDYWGQGVMVTVSS VL: DILINQSPASLTVSAGEKVTMSCKSSQSLLYSEKNQDYLAWYQQKPGQSPKLLMYGASYRHTGVPDRFTGSGSGTDFTLTISSVQAEDLADYYCEQTYSYPYTFGAGTKLELK", "binding result": "binds"},
      {"binder": "antibody clone 1G6 (antibody, V domains shown, Rat monoclonal IgG from a hybridoma) VH: EVKLLESGGGLVQPGGSLRLSCVASGFTFTDFYMNWIRQPAGKAPEWLGLIRNKANGFTTEYNPSVKGRFTISRDNTQHMLYLQMNTLRAEDTATYYCARIGINNGGSLDYWGQGVMVTVSS VL: DILINQSPASLTVSTGEKVTMSCKSSQSLLYSENKQDYLAWYQQKPGQFPKLLIYGASNRHTGVPDRFTGSGSGTDFTLTINIVQAEDLADYYCEQTYSYPYTFGAGTKLELK", "binding result": "binds"}
    ]},
    {"target": "T1, human wild-type TREM2 (membrane bound, …)", "experiment": "cell-based or functional assay", "units": {"increase of mature TREM2 in the membrane fraction (quantified immunoblot, normalized to immature TREM2)": "fold"}, "values": [
      {"binder": "antibody clone 14D3 (antibody, V domains shown) VH: EVKLLEFGGGLVQPGGSMRLSCAASGFTFTDFYMNWIRQPAGRAPEWLGLIRNKTKGYTTEYNRSVKGRFTISRDNTQNMLYLQMNSLRPEDTATYYCARIGVNNGGSLDYWGQGVMVTVSS VL: DILIIQSPASLTVSAGARVTMSCKSSQSLLYSENNQDYLAWYQQKPGQFPKLLIYGASNRHTGVPDRFTGSGSGTDFTLTISSVQAEDLADYYCEQTYSYPYTFGAGTKLELK", "increase of mature TREM2 in the membrane fraction (quantified immunoblot, normalized to immature TREM2)": "≤ 5"}
    ]}
  ]
}
